The test system of series [1] is Brachypodium distachyon. Briefly: stomatal conductance after ABA added to the transpiration stream (gas exchange analyzer). The class given is in vivo. The conditions noted are these: 2 μM ABA. The procedure: We next investigated stomatal closure in response to abscisic acid.
(top infrared thermal image, bottom photo of the same plants). • (B) Stomatal density and (C) stomatal index were determined using leaf imprints created of the 4th true leaf of plants with 3 independent replicates plants per genotype with 4 images per plant. Circles represent counts per each image while diamonds are the average per each plant. Error bars represent SEM while p-values were obtained from two-tailed t-tests comparing mutant to WT. • (D) Stomatal conductance was quantified using a gas exchange analyzer. […] Data shown are the average of n=3±SEM plants per genotype using 1 leaf per experiment and genotype.
FIG. 14 (or FIG. 8 of Example 2): Bdmpk5 CRISPR Alleles Show Strong CO2 insensitivity but functional ABA responses. • (A, B) 5 to 6 week old plants were analyzed in time-resolved stomatal conductance analyses. • (A) CRISPR alleles show strongly impaired stomatal responses to CO2 shifts. […] Data shown are the average of n=3±SEM experiments using one leaf per experiment and genotype. • (C,D) Stomatal density (C) and stomatal index (D) were determined using leaf imprints created of the 4th true leaf with 3 replicate plants and genotype. […]

Series [2] relates to BdMPK5, HT1 and CBC1. Briefly: in vitro phosphorylation assay with GST-CBC1, His-HT1 and His-BdMPK5. The format is biochemical, Brachypodium distachyon. The conditions noted are these: with or without 20 mM NaHCO3, n=2. As to the method:
Furthermore, this activation of CBC1 is inhibited by elevated CO2/bicarbonate only when HT1, CBC1 and MPK4 or MPK12 are included in the reconstituted reaction (Takahashi et al., 2022). […] The high CO2/bicarbonate response was similar to high CO2 responses found for AtMPK4 and AtMPK12, but not for the close homolog AtMPK11 (Takahashi et al., 2022).
In vitro phosphorylation assays were performed using GST-CBC1, His-HT1 and His-BdMPK5 (WT or D90N) recombinant proteins with or without 20 mM NaHCO3. Phosphorylation levels of CBC1 (top) and Coomassie brilliant blue (CBB)-stained gels (bottom) are shown. • (B) AlphaFold2-predicted complex of BdMPK5 with HT1. BdMPK5 is shown in red, while HT1 is shown in blue. The BdMPK5-D90 residue, which is mutant in chill1, is colored green, and is predicted, based on the wildtype BdMPK5-HT1 simulation, to lie at the interface of BdMPK5 and HT1.

The target of series [3] is T1, GST-CBC1 (recombinant Arabidopsis Raf-like kinase CBC1 with GST tag).
T1 sequence (Q9SSA4 whole entry, looked up): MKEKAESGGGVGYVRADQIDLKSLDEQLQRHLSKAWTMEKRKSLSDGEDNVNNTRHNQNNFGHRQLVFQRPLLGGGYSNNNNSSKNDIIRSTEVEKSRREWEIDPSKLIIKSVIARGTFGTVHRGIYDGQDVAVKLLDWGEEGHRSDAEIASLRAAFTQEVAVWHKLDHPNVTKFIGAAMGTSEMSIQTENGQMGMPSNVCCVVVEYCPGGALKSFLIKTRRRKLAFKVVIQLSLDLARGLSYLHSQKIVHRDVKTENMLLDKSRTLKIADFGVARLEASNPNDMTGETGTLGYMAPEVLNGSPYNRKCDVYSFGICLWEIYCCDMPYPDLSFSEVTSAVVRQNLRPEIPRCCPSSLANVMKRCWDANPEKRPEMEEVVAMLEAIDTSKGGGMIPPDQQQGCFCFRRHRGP

The subject of series [4] is MPK4/12, HT1 and CBC1 recombinant proteins. Briefly: in vitro phosphorylation assay: NaHCO3-dependent down-regulation of HT1-mediated CBC1 phosphorylation. The format is biochemical, Arabidopsis. The conditions noted are these: isoform replaces wild type protein or is added; 20 mM NaHCO3 vs NaCl control, 30 min. The procedure:
We tested whether this HT1-mediated activation of CBC1 is inhibited by CO2/bicarbonate by adding NaHCO3 in in vitro phosphorylation reactions. […]
FIG. 2. […] Histone was used as an artificial protein kinase substrate. • (B) MPK4, HT1 and CBC1 proteins were incubated with NaHCO3 at the indicated concentrations for 30 min, and in vitro phosphorylation assays were performed. • (C) CBC1 band intensities as shown in (B) were measured using IMAGEJ™, n=4 experiments, error bars show ±S.D. • (D) MPK4, HT1 and CBC1 proteins were incubated in reaction buffers adjusted at different pH (6.5 to 8.5) for 30 min, and in vitro phosphorylation assays were performed. • (E) CBC1 band intensities and the density-ratios of ‘+NaHCO3’ to ‘—NaHCO3’ (=+NaCl controls) for each pH condition
FIG. 3. […] Ambient CO2 concentrations are indicated by the top bars. n=7 experiments, error bars show ±SEM. • (C) Recombinant HT1 (wild type, HT1-G89R or HT1-R173Q) and CBC1 proteins were incubated with MPK4 in the presence or absence of 20 mM NaHCO3 or 20 mM NaCl (−controls) for 30 min, and in vitro phosphorylation assays were performed. • (D) Recombinant MPK12, CBC1 and HT1 (WT or R102K) proteins were incubated with or without 20 mM NaHCO3 or 20 mM NaCl (−controls) for 30 min, and in vitro phosphorylation assays were performed. Histone was used as an artificial kinase substrate. • (E) HT1 (WT or A109V) proteins were used for in vitro phosphorylation assays. Proteins were incubated with or without 20 mM NaHCO3 or 20 mM NaCl (−controls) for 30 min. • (F) Stomatal conductances were analyzed using intact plants of Arabidopsis (Col-0 (WT), cbc1 cbc2, ht1-A109V and cbc1 cbc2 ht1-A109V). CO2 concentration changes were applied as indicated on top (p.p.m.). […]

For series [5], the target named is T2, GST-MPK4 (recombinant Arabidopsis MAP kinase MPK4 with GST tag).
T2 chain: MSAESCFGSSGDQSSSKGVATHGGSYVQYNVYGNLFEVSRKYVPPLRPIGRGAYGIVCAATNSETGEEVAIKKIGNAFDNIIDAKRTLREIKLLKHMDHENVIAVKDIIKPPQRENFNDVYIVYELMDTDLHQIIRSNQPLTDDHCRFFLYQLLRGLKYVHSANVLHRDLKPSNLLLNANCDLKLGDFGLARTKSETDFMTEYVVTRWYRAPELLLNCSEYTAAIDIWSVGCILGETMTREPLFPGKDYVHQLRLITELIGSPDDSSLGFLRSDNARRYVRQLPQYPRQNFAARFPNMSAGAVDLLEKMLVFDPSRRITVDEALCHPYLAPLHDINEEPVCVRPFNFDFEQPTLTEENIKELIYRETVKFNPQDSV

Series [6] deals with MPK4 and HT1. The series can be described thus: in vitro pull-down assay, His-HT1 with GST-MPK4. The class given is binding, Arabidopsis. The conditions noted are these: pull-down with or without 20 mM NaHCO3. As to the method: We therefore investigated a possible binding between MPK4 and HT1 and the effect of HCO3^−.
FIG. 4. […] CO2 concentration changes were applied as indicated on top (p.p.m.). n=6 experiments, error bars show ±SEM. • (J) Model of plant stomatal CO2 sensor and signaling (see text).
FIG. 6. […] Precipitated proteins were washed with buffers supplemented with NaHCO3 at the indicated concentrations (0, 2 or 20 mM). See FIG. 4d for an independent experiment. To control for effects of Na^+, 20 mM NaCl (0 mM NaHCO3) for lanes 1 and 4 were included in the buffers; and 18 mM NaCl (2 mM NaHCO3) for lane 3 were included in buffer.

The target in series [7] is T3, MPK12 (recombinant Arabidopsis MAP kinase MPK12).
T3 chain: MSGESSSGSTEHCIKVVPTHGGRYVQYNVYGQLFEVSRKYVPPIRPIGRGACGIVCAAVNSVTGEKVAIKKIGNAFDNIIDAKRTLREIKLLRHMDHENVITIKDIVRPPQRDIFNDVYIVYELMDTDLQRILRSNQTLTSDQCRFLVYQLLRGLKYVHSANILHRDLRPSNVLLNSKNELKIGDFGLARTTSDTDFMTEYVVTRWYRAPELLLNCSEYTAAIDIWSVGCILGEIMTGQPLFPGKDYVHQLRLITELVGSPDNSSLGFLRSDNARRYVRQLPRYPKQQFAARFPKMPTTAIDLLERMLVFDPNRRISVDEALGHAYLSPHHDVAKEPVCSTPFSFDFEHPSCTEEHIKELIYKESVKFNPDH

Positions count from the first letter of the chain named. Names may count otherwise.

For the molecule `CC1=CC(=O)CC(C)(C)[C@@]1(O)/C=C/C(C)=C\C(=O)O` [ABA, abscisic acid], the “stomatal conductance response to ABA” value is on record as “steep decline in conductance” in series [1] (T3 BdMPK5 CRISPR lines) and “responded similarly to WT” in series [1] (chill1 leaves, 5-week old).

B1: BdMPK5: recombinant Brachypodium distachyon MAP kinase BdMPK5, SEQ ID NO: 13 (protein)
chain: MRMEGGGAGPAAAAAAGGAHGLGEAQIKGTLTHGGRYVQYNVYGNLFEVSAKYVPPIRPVGRGACGIICAAINVQTREEVAIKKIGNAFDNQIDAKRTLREVKLLRHMNHENVISIKDIIRPPRRENFNDVYIVYELMDTDLHHLLRSNQPLTDDHCQYFLYQVLRGLKYVHSANVLHRDLRPSNLLLNAKCDLKIGDFGLARTTTETDFMMEYVVTRWYRAPELLLNCSEYTGAIDMWSVGCILGEIATREPLFPGKDYVHQLRLITELLGSPDDTSLGFLRSDNARRYVRSLPQYPKQQFRSRFPNMSSGAMDLLERMLVFDPNKRITVDEALCHPYLASLHEINDEPVCPAPFSFDFEQPSFTEEDIKELIWRESVKFNPEPIH
modifications: Synthetic: Bd21-3 (WT) BdMPK5
For the molecule B1, in series [2], the “high CO2/bicarbonate-mediated down-regulation of CBC1 phosphorylation with BdMPK5 protein” value was “high CO2/bicarbonate-induced down-regulation of the CBC1 protein kinase activity”.

B2: BdMPK5-D90N: chill1 variant of BdMPK5 protein, SEQ ID NO: 14 (protein)
chain: B1 chain with D90N
modifications: Synthetic: Chill1 BdMPK5
With B2, in series [2], the “high CO2/bicarbonate-mediated down-regulation of CBC1 phosphorylation with BdMPK5 protein” value is “abrogated the high CO2/bicarbonate-mediated downregulation of CBC1 phosphorylation”.

B3: His-HT1 (recombinant Arabidopsis HT1 protein kinase, wild type, with His tag) (protein)
chain: MSGLCFNPFRLRWSLRSKLPLEPSLPNLPCNPSSSKTNRYAEAETMEKKRFDSMESWSMILESENVETWEASKGEREEWTADLSQLFIGNKFASGAHSRIYRGIYKQRAVAVKMVRIPTHKEETRAKLEQQFKSEVALLSRLFHPNIVQFIAACKKPPVYCIITEYMSQGNLRMYLNKKEPYSLSIETVLRLALDISRGMEYLHSQGVIHRDLKSNNLLLNDEMRVKVADFGTSCLETQCREAKGNMGTYRWMAPEMIKEKPYTRKVDVYSFGIVLWELTTALLPFQGMTPVQAAFAVAEKNERPPLPASCQPALAHLIKRCWSENPSKRPDFSNIVAVLEKYDECVKEGLPLTSHASLTKTKKAILDHLKGCVTSISSPFSSSSVPVNA
Regarding B3, the “CBC1 phosphorylation, in vitro phosphorylation assay with radioactive 32P-ATP (FIG. 5)” value in series [3] is “We confirmed CBC1 phosphorylation by HT1 using recombinant His-HT1 and GST-CBC1 proteins”.

B4: HT1-R173Q (protein)
chain: B3 chain with R173Q
For the molecule B4, the “NaHCO3-mediated down-regulation of CBC1 phosphorylation/activity with the protein isoform in the reaction” value in series [4] is recorded as “partly impaired the NaHCO3-dependent CBC1 downregulation”. Besides, in series [5], the “NaHCO3-dependent CBC1 downregulation, in vitro phosphorylation assay with MPK4 and CBC1 (FIG. 3C)” value is given as “the R173Q mutation partly impaired the NaHCO3-dependent CBC1 downregulation”. For the same molecule, the “HCO3- dependent binding of HT1 isoform with MPK4” value in series [6] is on record as “partially interact with MPK4”.

B5: HT1-R102K (protein)
chain: B3 chain with R102K
On to B5, for which the “NaHCO3-mediated down-regulation of CBC1 phosphorylation/activity with the protein isoform in the reaction” value in series [4] is “disrupt the NaHCO3-triggered down-regulation of CBC1 phosphorylation and CBC1 activity”. The “NaHCO3-triggered down-regulation of CBC1 phosphorylation and CBC1 activity, in vitro phosphorylation assay with MPK12 and CBC1 (FIG. 3D, n=3)” value in series [7] was “both of these R102K and A109V mutations disrupt the NaHCO3-triggered down-regulation of CBC1 phosphorylation and CBC1 activity”. In series [6], the “HCO3- dependent binding of HT1 isoform with MPK4” value is “did not show a bicarbonate-induced interaction of HT1 with MPK4”.

(Values after US20260078398A1, “PLANTS GENETICALLY ENGINEERED FOR INCREASED WATER USE EFFICIENCY AND CARBON INTAKE AND METHODS FOR MAKING AND USING THEM” (The Regents of the University of California, priority 2022, published 2026).)
